From publication doi:10.1101/2021.04.12.439584 (bioRxiv, 2021)

Target: Rabbit skeletal muscle actin (rabbit, UniProt P68135 1-377)
Test: co-sedimentation

Binder | Kd [nM]
LmForminA FH2 domain (695aa-1092aa) (domain or fragment) ASGAAAPMLNSSTTRNVPINGAVGDSDDAIFKAARPIELTAGARDKLLALFPKAAPKHVIEEDEATSRVQRILDVNRDRNVGIVLKFIRLPIQQIEASVRTFDTLTLGEERISGLLKIIPTSDDFEAIARAQKEHGGPWKRAEEQQLPQAVRFFLMTQRIDHYAERIHAWSLRYELHGRLEYLEQKLSKADKAIDATFASPSLPDLLYFLLEVSNFLNAGSRFQGAKGFPITQLPQIMDFKTTDGKGTLLQYVAEILDTVNPHLQAISSELMPAVDEGRDIDVASIEQELKKLRGRLQKCKHLIEQLKNDVRWTNVLGKFIYRSLPELERVEKLAESINGKAERLQEFLCEKKETFSLNEVLRVLSNFCKRYEQEREKQRLRQERQDRMEDNKQRRQS | 1840
LmForminB FH2 domain (714aa-1149aa) (domain or fragment) KPKPQYTGPRLKTFFWKKILKPSGIWAASDTDDVRRAVIDESFMLKLFKLKAVAQPSAAEGAAEKSEQERRSQLRSNVFTGQRLQNMGIALKRVQVPVEVLCKALITCDSAVLPPERREMLTAALPTTEDVTALTAEKQAGRSVWTEVETYLYTAATTVKDVRERLQLWTAAEELEDTVQSISSLLSSVDAAVCAITHRNGRFARMMRIILAFGNHLNRGTPHADAEGFRLESLNQLNFVKSSDGKTTVLMALVVSLMDSGRGRSERGGGTTSAPGADNDDDDVRNALRFVEDVSCVRAVANSPLQDMGQQVSQLNFTLQRMRRVVEEAKDTKAWYDKRLPSVKAEEVPDALPGLLREAVDRYLATVGQIALRYQQLRDDVSAMMATYGEDPNADETVIWGYVLQFSKDVQRCVDTVAAVHLTKRRLMGMPEATEQ | 200
